{
  "source": "paper PMC7912224",
  "key": {"[1]": {"target": "HBc protein (core protein) of hepatitis B virus genotype D (hepatitis B virus genotype D)", "test": "SEC; VLPs incubated in GuHCl- and LiCl-containing dissociation buffer, +4 °C, 16 h; debris removed; supernatant on a Superose6 or Superdex200 column in dissociation buffer; capsid to dimers, the dimer stays"}, "[2]": {"target": "HBc protein (core protein) of hepatitis B virus genotype D (hepatitis B virus genotype D)", "test": "reassociation by dialysis, tested by electron microscopy, DLS, SDS-PAGE and NAGE; purified HBc dimers dialysed from dissociation buffer against PBS at +4 °C overnight; dimers to VLPs (empty capsids)"}, "[3]": {"target": "HBc protein (core protein) of hepatitis B virus genotype F (hepatitis B virus genotype F)", "test": "SEC; VLPs incubated in GuHCl- and LiCl-containing dissociation buffer, +4 °C, 16 h; debris removed; supernatant on a Superose6 or Superdex200 column in dissociation buffer; capsid to dimers, the dimer stays"}, "[4]": {"target": "HBc protein (core protein) of hepatitis B virus genotype F (hepatitis B virus genotype F)", "test": "reassociation by dialysis, tested by electron microscopy, DLS, SDS-PAGE and NAGE; purified HBc dimers dialysed from dissociation buffer against PBS at +4 °C overnight; dimers to VLPs (empty capsids)"}, "[5]": {"target": "HBc protein (core protein) of hepatitis B virus genotype G (hepatitis B virus genotype G)", "test": "SEC; VLPs incubated in GuHCl- and LiCl-containing dissociation buffer, +4 °C, 16 h; debris removed; supernatant on a Superose6 or Superdex200 column in dissociation buffer; capsid to dimers, the dimer stays"}, "[6]": {"target": "HBc protein (core protein) of hepatitis B virus genotype G (hepatitis B virus genotype G)", "test": "reassociation by dialysis, tested by electron microscopy, DLS, SDS-PAGE and NAGE; purified HBc dimers dialysed from dissociation buffer against PBS at +4 °C overnight; dimers to VLPs (empty capsids)"}},
  "data": [
    {"substance": "HBc protein (core protein) of hepatitis B virus genotype D (natural protein)", "values": [
      {"measurement": "Dimer content", "setting": "[1]", "result": 30, "unit": "%"},
      {"measurement": "percent of the treated soluble VLPs as dimers", "setting": "[1]", "result": 70, "unit": "%"},
      {"measurement": "stoichiometry N", "setting": "[1]", "result": 2},
      {"measurement": "Reassociated dimers (percent of dimers reassociated in VLPs)", "setting": "[2]", "result": 80, "unit": "%"}
    ]},
    {"substance": "HBc protein (core protein) of hepatitis B virus genotype F (natural protein)", "values": [
      {"measurement": "Dimer content", "setting": "[3]", "result": 30, "unit": "%"},
      {"measurement": "percent of the treated soluble VLPs as dimers", "setting": "[3]", "result": 40, "unit": "%"},
      {"measurement": "stoichiometry N", "setting": "[3]", "result": 2},
      {"measurement": "Reassociated dimers (percent of dimers reassociated in VLPs)", "setting": "[4]", "result": 80, "unit": "%"}
    ]},
    {"substance": "HBc protein (core protein) of hepatitis B virus genotype G (natural protein)", "values": [
      {"measurement": "Dimer content", "setting": "[5]", "result": 30, "unit": "%"},
      {"measurement": "percent of the treated soluble VLPs as dimers", "setting": "[5]", "result": 80, "unit": "%"},
      {"measurement": "stoichiometry N", "setting": "[5]", "result": 2},
      {"measurement": "Reassociated dimers (percent of dimers reassociated in VLPs)", "setting": "[6]", "result": 90, "unit": "%"}
    ]}
  ]
}
